In general, stoichiometry N refers to the number of molecules, sites or subunits per partner or assembly. Broadly, the Kd is the constant that tells how readily two partners part at equilibrium. A low value points to higher affinity.

This series deals with the molecule itself. Nature of the series: SEC; analytical gel filtration on Superdex 200 10/300 GL in 20 mM Tris (pH 7.3), 180 mM NaCl, 0.1 mM EDTA, 1 mM DTT; loaded at 2-10 µM, at most three-fold diluted during the run; dimer to monomers.

B1: PAPS synthase 1 wild type (enzyme, human, UniProt O43252 1-624, looked up)
chain: MEIPGSLCKKVKLSNNAQNWGMQRATNVTYQAHHVSRNKRGQVVGTRGGFRGCTVWLTGLSGAGKTTVSMALEEYLVCHGIPCYTLDGDNIRQGLNKNLGFSPEDREENVRRIAEVAKLFADAGLVCITSFISPYTQDRNNARQIHEGASLPFFEVFVDAPLHVCEQRDVKGLYKKARAGEIKGFTGIDSEYEKPEAPELVLKTDSCDVNDCVQQVVELLQERDIVPVDASYEVKELYVPENKLHLAKTDAETLPALKINKVDMQWVQVLAEGWATPLNGFMREREYLQCLHFDCLLDGGVINLSVPIVLTATHEDKERLDGCTAFALMYEGRRVAILRNPEFFEHRKEERCARQWGTTCKNHPYIKMVMEQGDWLIGGDLQVLDRVYWNDGLDQYRLTPTELKQKFKDMNADAVFAFQLRNPVHNGHALLMQDTHKQLLERGYRRPVLLLHPLGGWTKDDDVPLMWRMKQHAAVLEEGVLNPETTVVAIFPSPMMYAGPTEVQWHCRARMVAGANFYIVGRDPAGMPHPETGKDLYEPSHGAKVLTMAPGLITLEIVPFRVAAYNKKKKRMDYYDSEHHEDFEFISGTRMRKLAREGQKPPEGFMAPKAWTVLTEYYKSLEKA
notes: also called PAPSS1; PAPSS1 wild type; source: E. coli expression strains, purified (GSH sepharose, PreScission digestion, Superdex 200)
Consider B1, for which the “stoichiometry N” value came out at 2.

B2: PAPS synthase 1 L119K (enzyme, human, UniProt O43252 1-624, looked up)
chain: MEIPGSLCKKVKLSNNAQNWGMQRATNVTYQAHHVSRNKRGQVVGTRGGFRGCTVWLTGLSGAGKTTVSMALEEYLVCHGIPCYTLDGDNIRQGLNKNLGFSPEDREENVRRIAEVAKKFADAGLVCITSFISPYTQDRNNARQIHEGASLPFFEVFVDAPLHVCEQRDVKGLYKKARAGEIKGFTGIDSEYEKPEAPELVLKTDSCDVNDCVQQVVELLQERDIVPVDASYEVKELYVPENKLHLAKTDAETLPALKINKVDMQWVQVLAEGWATPLNGFMREREYLQCLHFDCLLDGGVINLSVPIVLTATHEDKERLDGCTAFALMYEGRRVAILRNPEFFEHRKEERCARQWGTTCKNHPYIKMVMEQGDWLIGGDLQVLDRVYWNDGLDQYRLTPTELKQKFKDMNADAVFAFQLRNPVHNGHALLMQDTHKQLLERGYRRPVLLLHPLGGWTKDDDVPLMWRMKQHAAVLEEGVLNPETTVVAIFPSPMMYAGPTEVQWHCRARMVAGANFYIVGRDPAGMPHPETGKDLYEPSHGAKVLTMAPGLITLEIVPFRVAAYNKKKKRMDYYDSEHHEDFEFISGTRMRKLAREGQKPPEGFMAPKAWTVLTEYYKSLEKA
notes: Same construct as m1 with the point mutation made by site-directed mutagenesis; the oligonucleotides are in Information S1; also called PAPSS1 L119K; source: E. coli expression strains, purified (GSH sepharose, PreScission digestion, Superdex 200)
For B2, the equilibrium dissociation constant (Kd) was less than 1000 nM and the “stoichiometry N” value was found to be 2.

B3: PAPS synthase 1 RR111,112AA (enzyme, human, UniProt O43252 1-624, looked up)
chain: MEIPGSLCKKVKLSNNAQNWGMQRATNVTYQAHHVSRNKRGQVVGTRGGFRGCTVWLTGLSGAGKTTVSMALEEYLVCHGIPCYTLDGDNIRQGLNKNLGFSPEDREENVAAIAEVAKLFADAGLVCITSFISPYTQDRNNARQIHEGASLPFFEVFVDAPLHVCEQRDVKGLYKKARAGEIKGFTGIDSEYEKPEAPELVLKTDSCDVNDCVQQVVELLQERDIVPVDASYEVKELYVPENKLHLAKTDAETLPALKINKVDMQWVQVLAEGWATPLNGFMREREYLQCLHFDCLLDGGVINLSVPIVLTATHEDKERLDGCTAFALMYEGRRVAILRNPEFFEHRKEERCARQWGTTCKNHPYIKMVMEQGDWLIGGDLQVLDRVYWNDGLDQYRLTPTELKQKFKDMNADAVFAFQLRNPVHNGHALLMQDTHKQLLERGYRRPVLLLHPLGGWTKDDDVPLMWRMKQHAAVLEEGVLNPETTVVAIFPSPMMYAGPTEVQWHCRARMVAGANFYIVGRDPAGMPHPETGKDLYEPSHGAKVLTMAPGLITLEIVPFRVAAYNKKKKRMDYYDSEHHEDFEFISGTRMRKLAREGQKPPEGFMAPKAWTVLTEYYKSLEKA
notes: Same construct as m1 with the double mutation made by site-directed mutagenesis; the oligonucleotides are in Information S1; also called PAPSS1 RR111,112AA; source: E. coli expression strains, purified (GSH sepharose, PreScission digestion, Superdex 200)
As to B3, the Kd was less than 1000 nM and the “stoichiometry N” value is 2.

Source of the values: paper PMC3252339, “Human PAPS Synthase Isoforms Are Dynamically Regulated Enzymes with Access to Nucleus and Cytoplasm” (PLoS ONE, 2012).
